Test [1] addresses TANV16L (tanapoxvirus 16L) lacking the C-terminal 23 residues, wild type (tanapoxvirus). Briefly: AUC.
Test [2] deals with human Bax BH3 motif peptide (28-mer) (human). Briefly: ITC. In general terms: Isothermal titration calorimetry measures the heat released or taken up as one component is titrated into another.
The target of test [3] is human Bak BH3 motif peptide (26-mer) (human). Briefly: ITC.

Where “and” joins values, the source holds several entries; their conditions need not be identical. Equal values may be shown once.

As usually defined, the stoichiometry N is the number of molecules, sites or subunits per partner or assembly. As a reminder, the Kd is the constant that tells how readily two partners part at equilibrium. High values mean a looser complex, low ones a tighter complex. On to “TANV16L (tanapoxvirus 16L) lacking the C-terminal 23 residues, wild type (domain or fragment)”, for which, in test [1], the ratio of monomer:dimer is 3.5 :1; the stoichiometry N is 2 and 4. The same substance registered a Kd in test [2] of 70 nM. In test [3], this substance registered a Kd of 38 nM.

The values are drawn from doi:10.1101/2020.01.21.914671.
